Read-outs that look alike come from different tables or passages of the source.
Legend:
[1] = target: T1, IRF5(222-467, S430D), S430D phosphomimetic construct of IRF5 (222-467) (human, UniProt Q13568-4 222-467); experiment: TR-FRET IRF5 dimerization inhibition, S430D (222-467), peptide titrated
T1 construct: range 222-467; Used in the dimer assay in two tagged forms at once (biotin tag and His tag); S and R stand 10 residues further (S440, R363), so the construct is probably numbered on an isoform 10 residues shorter; also called mutant S430D (222-467); biotin tag IRF5(222-467, S430D)
T1 sequence (Q13568 232-477 S440D limits assumed): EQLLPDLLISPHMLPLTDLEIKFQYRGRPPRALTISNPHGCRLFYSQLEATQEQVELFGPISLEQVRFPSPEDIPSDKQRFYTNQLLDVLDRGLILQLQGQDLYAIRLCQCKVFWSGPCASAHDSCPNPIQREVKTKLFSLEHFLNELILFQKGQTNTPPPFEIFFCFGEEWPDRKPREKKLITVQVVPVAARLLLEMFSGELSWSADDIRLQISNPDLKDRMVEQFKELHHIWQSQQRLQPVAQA
Protocol: (§1) The samples were incubated at room temperature for 20 min. Seventeen microliters per well of detection solution containing 10 nM europium (Eu) conjugated streptavidin and 80 nM allophycocyanin (APC) conjugated anti-His antibody (Columbia Biosciences) in Assay Buffer (without DTT) were added. The samples were incubated at room temperature for 60 min followed by overnight incubation at 40 C and 30 ul per well were transferred to 384-well polystyrene plates (Matrix, Thermal Scientific) in duplicates. […] The data were processed in Excel XLfit and the IC50 values were calculated using a nonlinear curve-fitting algorithm (four parameter equation). The data represent an average of 3 independent experiments (each run in triplicates) and the reported errors represent standard deviation (s.d.).

[2] = target: T1, IRF5(222-467, S430D), S430D …; experiment: as above; remark: listed apart in the source
Protocol: as §1

[3] = target: T2, N-terminal His (six histadine)-tagged IRF5 (222-425) SEQ ID NO 22 (human, UniProt Q13568 222-425); experiment: direct binding TR-FRET, FITC peptide and Tb anti-His antibody (FIG. 2)
T2 construct: also called His tag IRF5(222-425); his-tagged IRF5 (222-425, lacking helix 5 and unable to homodimerize)
T2 sequence (Q13568 other isoform, or with tags, fused parts or gaps limits assumed): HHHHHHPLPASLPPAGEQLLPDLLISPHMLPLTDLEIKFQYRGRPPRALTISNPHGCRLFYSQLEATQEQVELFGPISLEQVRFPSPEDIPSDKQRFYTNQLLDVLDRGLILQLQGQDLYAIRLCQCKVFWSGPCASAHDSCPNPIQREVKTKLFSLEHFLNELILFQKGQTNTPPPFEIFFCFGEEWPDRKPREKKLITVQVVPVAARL
Protocol: Aliquots (1.6 μl per well) of 4 μM FITC peptide solution in DMSO were added into 96-well polypropylene plates (Corning). […] The samples were incubated at room temperature for 30 min. […] Samples were incubated at 4° C. for overnight and 18 μl per well were transferred to small volume 384-well polystyrene plates (Corning) in duplicates.

Binder | IC50 [1] [nM] | also measured
Ac-IRLQISNPDLKDLMVQWFKDGGPSSGAPPPS-NH2 [Ac-IRLQISNPDLKDLMVQWFKDGGPSSGAPPPS-NH2 (SEQ ID NO: 9)] | 2420 | –
Ac-YLKFIPLKRAIWLIK-NH2 [Ac-YLKFIPLKRAIWLIK-NH2 (SEQ ID NO: 23), control CPP designed not to bind IRF5] | – | IC50 [2]: > 75 µM
Ac-YLKFIPLKRAIWLIK-NH2 (also: FITC label, position and linker not given here, Kept apart from m13) [control FITC labeled CPP designed not to bind IRF5 (SEQ ID NO: 23)] | – | binding result [3]: no binding (tested: 0-10.5 uM His tag IRF5(222-425))
Ac-PFPPLPIGEEAPKDDMVRFFKDLHQYLNVV-NH2 [Ac-PFPPLPIGEEAPKDDMVRFFKDLHQYLNVV-NH2 (SEQ ID NO: 10)] | 1670 | –
